In the DeepSol protein solubility set:

Assay: soluble on expression in E. coli; label from the status in PepcDB or PDB records

Sequence	soluble on expression in E. coli
MGSDKIHHHHHHMRTRDMLPILETLDESGIYSLEVWGGATFDACHRFLNENPWERLREIRKRVKNAKLQMLLRGQNLVGYRHYPDDIVEKFVQKTIENGLDVFRIFDALNDVRNLISSIKAAKKYNADHIQGTICYTISPVHTVEKYVEIANELAALEVDSICLKDMAGMLSPKMAYELVKALKKEVGLPINVHSHYTSGMASMALLKGVEAGAEMIDTCMSPLSSGTSHPPTESMVYALNELGYDTGVKLDILLEAREYFMKIREKYSGYLNPLSTIPDTRVLVYQIPGGMFSNLIAQLQEQNALDRLQEVLEEVPRVREDLGYPPLVTPTSQIVGVQAVINVLVGERYKVVTRETKDLVKGMYGRTPAPIKPEIVKKILGDEKPIDCRPADLLEPEFEKRKQELIEAGIENPSDEDVLLYALFPQTGLKFLKGEMVEEPFPVAGGKIEGSFEVEIDGQKYVVKVAPEK	not soluble
MNLRSRLVNATERAVLFQIFKDVQNDPEKYDNAVEAICESIDYFGKFLTDSEYLTQIKPILDTQCPTKSIICFSKCLTKVSTDINTTTFRDVITMLDWLKYVVEKSLTSAICSSLKVKETDVSAVQLYREFASACSNIPEKVSNCCAKALSGEHVKYINTVKWIFKMNLVQGIQKAMLLAHDDIVTAAPFTSFYGSGGPYMKTVAEIISSGRNIDITNKDGLLVQMIEWIGSLNNFDSQWRRMMFLIFQEPTYQGIQVHESLLTTLFLISKSDQILKRCIEATDLTGTLKRVVMVKLPFQRVLKRKTIEILINFVYRTKEQFAIQLLETSVKIWSDLNYAKSAPESQERHIVRMILYLVHLFRTCSSIDWESLFLNSMDGVHCRMSMLPMYVQSGIFVNQALCKQATKHRSKTHGSDEQPPETLEENKFVSSEVGKIWFEEMTSILEHGFNSSTVKDSERVRETANEITKDDSGEEFEETNAQRLQNNKDSAAITSKNNLRLDSDDDEDFPDYQVNESEKIFKNLEIGEEPKNKVTPPAYIADAFEMLLEKEKYEVFEAAFFNITNLINRRPIGFPQIAEKLFIRILHLQNNFGTPKFKETVDEIAVACITQRPEIVPSVVRLIIAPGQGFSIKQRLLHYIHNAADGMGALDKKLEECVMAQQLRIGGPTLSIILHRTINTDYDDEDEDPHRLLVPEWRRMVDARIAANTRRIGTTREPPRAGVVNRLAQAAKYMFYPLLVLPRGENASLLGKDSDLLASLIMVASMVYVRCGVCPQIHRMSSELISYATPHRFSENAKLRTACIIAHLNVTTLLPGDLMDELFDVPALIGWFDWANSVLVNASSSQLEKDMTRQFGHSVTKHLQRYHPAVLQHQDV	not soluble
SSENQKEVSPPQAISVKSEASSSIFSKPISTSSPAGLAAAQRVTPGKLSTLLLEMGPLAIRHITQTLCLDIPCFKDLSSSKQRRLIMSAMESGDKEKSVVFEKIGWGQWSAKRVDPANFDKELEATNFANAKVKDLISQESQRRKSNNSNSNSGGKVEMPMKVEHNITNIDGATTPPTAVASTTIPVNIKRSKSPLAAANVVYIDENALASEDEDEEFDEDDHHLHYQNKSRNSSNNFGKSSNGDPYSFGRRRSQVVFADSTPENIEHEIIAQKIRPLLRNRRRSSIKPHTPFISKLNTHQDSSYLSPNTTSTTTPSNNNSNSNQAKIDLEKLTATSEPTSRRASRLSVSKESSIRSTLFPNKNYLIVTTNPNSKATSVSTSPKLEEQMNVSSNPIVLSDKEKHRVASQHLNGESSPQLVPHSHHQPHSDTDEEDWESIGAASLRNNSLAPNIDSVASSTNGVVSPKPTNPSFTNSQNGDIEPPLQHDQQKHEQQPRNGEDNSAAFLLMSLKS	soluble
MGSDKIHHHHHHMNYRDELILQWVNQQGKASVIELAQHCDISVETIRRDLNKLANKGLLHRTHGGAVSNKTKDLGSFFQTRKHINATAKRHIAQKALDLLYENAVIGLDASSTSWYFAYLMPDIPCTVVTNSMFNINALVNKSNVKTIVTGGVYSAKYEAFYGPLSEYLLQRLHINFSVFSCSGIDKNGNIWESNELNASLKRKMMEASERAYLLIDSSKFEKTSLIQLADLSKINTIFSDRSLPDNLQKYCEQHDIMTVL	not soluble
MGSDKIHHHHHHMSQINASASGTYAFDDQFKVNRLGYGTMQLTGEGTWGPYDDPNNAVSVIKKAVDLGINFFDTADSYGPWFADRYLAEGLKSASNRDEIFISDKVGQTRQGPGVWTPHGEPNYLRQQVEVSLMTLGIDHEDLLFLHRIDSHFSVAEQVGELKKLQDEGKIKHIGLSQVTVGQIKEAQKYAKIDAVENLYNVSDHRDDDVLDYAESQHMAFVPWFPLNTEKLTGANSPLAKIANKYKASPAQIALAWLLKRSGNVLPIPGTSSVAHLEDNVAAASIKLSDDDFKAITNLGVSNR	not soluble
AHHHHHHGSGVEEHKKEAPKTFKFGVITVSDKGAKGEREDKSGPLIIEELSKLGEHVYYKIVPDDKIEVLIALFEAIKSGADVVVTTGGTGITRRDITIESIKPLFDKELSFGEVFRAKSYEEVGYATVLTRATAGIIRGQERIVVVFSLPGSVNAVKTGLEIIKSEVFHILKHARE	soluble
MISANKQFDIQLGDEIGKDFFTQDTVVCAFRNKEKTTDFVFTSGPIILICDGTTRRKMIKRRFKMEFDIKKVFFHSFIVTRNAEKLATENCGGPDTKHRDYLVVCGEHKLQFISLPDYHFYHYEIPFKLRNVFSCSTSLLVERFYDSSSEQTFHHHDTFHLYSLSGPFGELLPVIYKTSGYHPQWKFCWQSHRDEAGLVDAQQNYVVVYDQKEKTHRIYMARETQEQEVHAAIRYVEALRRPSDSTMFASSLAPNSAGRTTHFDPTLNSPAENVLSEVISSEIDSRSPFTPHLRSGFGHSTPNNPNAPGYPATLPTPNFEGNFFF	not soluble
MEEAEKPLQVAAVDSSVPRTAELAGITTLDDPLGHMPERFDAFICYCPSDIQFVQEMIRQLEQTNYRLKLCVSDRDVLPGTCVWSIASELIEKRCRRMVVVVSDDYLQSKECDFQTKFALSLSPGAHQKRLIPIKYKAMKKEFPSILRFITVCDYTNPCTKSWFWTRLAKALSLPLEHHHHHH	soluble
GSHMLKGQEFAPSHQQVYAPLRADGDKPRAHLTVVRQTPTQHFKNQFPALHWEHELGLAFTKNRMNYTNKFLLIPESGDYFIYSQVTFRGMTSESSEIRQAGRPNKPDSITVVITKVTDSYPEPTQLLMGTKSVSEVGSNWFQPIYLGAMFSLQEGDKLMVNVSDISLVDYTKEDKTFFGAFLL	soluble
MAEEPYVFTLKKRNNDDAEDDWDRYSENVRPTRRGRKIDALKRNVEEVVTEETARLKLDQLLEELQNLECSEESEELQKILDFCSWFEEKLAIGFHKVYYELLWKIISRHGFLEKYKEDERMLKIWEKMADNSAGHAHDIYQFAISRKSLVKCAALYARWSQSVELAGAYVEARRVLILARTNCAVPIQIVNDAEDALEMREMRRHLQERDSDDDEEEEETRKAFTNLPVIGDNHTVPIVRLPSMCSDTTKKAMKFDTGNVERVNPVCKDNQMQPFEVLSYTDADDVEYLRNVHELHAHIERYAIKETTNPSITGSSTSEAAAVTIYPVSSSEFEVWTVEGSGPTKAKARMAIKRVFKDLSFEEYAASLLPNHPSMVRATAKKLDFDETL	not soluble
MTAENLSLSPELLDAVRRISGTEHLLVALDFDGTLSPIVDRAEDARPLPRSAAALEALAQLPRTTTALISGRALDSLRLVASPPADTLLIGSHGAEVWLGEGSLGLELDEDQRLKLAAVREVLSEIVNIAPGTLLEDKPAGVVLHTRMADDDVADDAVEAAMRVLREHPGVYLKTGKRVLETSVVHASKGQAVEFLRQATGATAILFAGDDVTDEDALGRLMGDDVGIKVGLDFTQAQYRVEAPVHVAELLEALLRERRRVTTDA	soluble
MKLIITSGGTTEPIDAVRGITNHSTGQLGKLITERFLQYHHDVTLVTTKTATKPLPNKRLRIIEVETVNDLMAALKDQVPHHDILIHSMAVSDYTPVYMTDLEQVSQADNLNCFLCEHNSEPKISSASDYQVLFLKKTPKVISYVKQWNPNIKLVGFKLLVNVPQEELIKVARASLAKNHADYILANDLVDIQTGMHKALLISNNEVASADTKEAIADLLYERMTKHD	not soluble
MGSDKIHHHHHHMKTNTSNQTTPQLATIKLFAMGCHIQISLYTTRLSAQYSQMTIDQQVAFLTSDVQQRLAYWEHIFSRFDDTSELMRLNNRGDQWSEVSSELFEVLQHAIHFVLKTQGLVTPTLLQPLWAAGYKHSFETLPKISMPSLPFTGLSAPSNVQDTTSANHANQQIGRIQLRQLTDGQHQVYLPTGMALDLNGYVKGWCAMQLAEHISRVHDWHIPCLVDMGGDIAIGIPRDPIDKPVTWGVAVAKPYFANSKHVQNDEDVAILKLSSGAVATSGQDYRRWWHDGRWQHHLIHPHDSRPVTSDVLTATVLATDTMTAEVYAKYCLLLGVKVAMAWLNKYHIAALLIDTDNKVMATSAIRPHLLQPNVVKSNVMSI	not soluble
MGSDKIHHHHHHMVSWVRGATKSLLGCSENSRRTKGNDMAVIFKGIPSIGNGLTDDTVLWRYLDTAKFLDLLHNRTLFFCRGDRFADKYEGAFTESIKHAIEEAFRKNEINSSVAEFKTRLRERVFVNCWHQSRDDSMAMWSLYGKSSAAVAITTTVGQLRDAIKLAKLPYAINIAKVEYVKHWRDPQLVFKPYSNVFAYKLKAYDYEKEVRVIIDRFHENEDISALPDGMSAAIPLETLLRSIVVCPEAAPWFVELVGDVVHKYGVSAPVNRSKLAFDPK	not soluble
MKKRYRAINDYYRELFGEKIFKLPIDAGFDCPNRDGTVARGGCTFCTVSGSGDAIVAPEAPIREQFYKEIDFMHRKWPEVNKYLVYFQNFTNTHAKLEIIKERYEQAINEPGVIGINIGTRPDCLPDETIYYLAELSERMHVTLELGLQTTYEATSALINRAHSYDLYKKTVKRIRELAPKVEIVSHLINGLPGETHDMMVENVRRCVTDNDIQGIKLHLLHLMTNTRMQRDYHEGRLRLLSQEDYISIICDQLEIIPKHIVIHRITGDAPRHMLIGPMWSLNKW	not soluble
SETETKTLPLENASILSEGSLQEGHRLWIGNLDPKITEYHLLKLLQKFGKVKQFDFLFHKSGALEGQPRGYCFVNFETKQEAEQAIQCLNGKLALSKKLVVRWAHAQVKRYDHNKNDKILPISLEPSSSTEPAQSNLSVTAKIKAIEAKLKMMAENPDAEYPAAPVYSYFKPPDKKRTTPYSRTAWKSRR	soluble
MGSDKIHHHHHHMYTLNILKDSTAVMYEKMTFPAFQYVLQEINSKESLIAIAASYQEEPVGLVLAEIRTYNQSAEVLSLFVEPSHRCAGIGTNLLNRLETELTYRRCKKVELVYMTGKSTTPALENLLHKCGWTSPQPRMLVCKGEMEKGIQAPWLKQYSQLPAAYTIFPWREITTQERQAIERQQATQPWIPEDLIPFKYDKQIEPLNSLGLRYQGQVVGWLISHRIFPDTIRYTCAFCRPDIQKKGRMITLFYEAAKLQLNAKIPHFIWTTPMNHQSMVAFVKYRCLPYLTSIQETRIISKLLLG	not soluble
HHHHHHSSGLVPRGSHMRNYCTKTFGSAFSVTVVPTLKDNFSYLINDHTTHTLAAVDVNADYKPILTYIEEHLKQQGNADVTYTFSTILSTHKHWDHSGGNAKLKAELEAMNSTVPVVVVGGANDSIPAVTKPVREGDRVQVGDLSVEVIDAPCHTRGHVLYKVQHPQHPNDGVALFTGDTMFIAGIGAFFEGDEKDMCRAMEKVYHIHKGNDYALDKVTFIFPGHEYTSGFMTFSEKTFPDRASDDLAFIQAQRAKYAAAVKTGDPSVPSSLAEEKRQNLFLRVADPAFVAKMNQGNAHALMMYLYNACD	soluble
SKVKVAVRIRPMNRRETDLHTKCVVDVDANKVILNPVNTNLSKGDARGQPKVFAYDHCFWSMDESVKEKYAGQDIVFKCLGENILQNAFDGYNACIFAYGQTGSGKSYTMMGTADQPGLIPRLCSGLFERTQKEENEEQSFKVEVSYMEIYNEKVRDLLDPKGSRQTLKVREHSVLGPYVDGLSKLAVTSYKDIESLMSEGNKSRTVAATNMNEESSRSHAVFKITLTHTLYDVKSGTSGEKVGKLSLVDLAGSERATKTGAAGDRLKEGSNINKSLTTLGLVISALADQSAGKNKNKFVPYRDSVLTWLLKDSLGGNSKTAMVATVSPAADNYDETLSTLRYADRAKHHHHHH	soluble
